From patent publication US12099068B2, “Biomarkers for graft-versus-host disease” (Incyte Corporation, priority 2018, dated 2024) come the findings set out here.

The labels stand for the following.
B1: KLRD1 (protein, UniProt Q13241 1-179, looked up)
Natural killer cells antigen …: MAVFKTTLWRLISGTLGIICLSLMSTLGILLKNSFTKLSIEPAFTPGPNIELQKDSDCCSCQEKWVGYRCNCYFISSEQKTWNESRHLCASQKSSLLQLQNTDELDFMSSSQQFYWIGLSYSEEHTAWLWENGSALSQYLFPSFETFNTKNCIAYNPNGNALDESCEDKNRYICKQQLI
B2: GDF-2 (protein, UniProt Q9UK05 320-429, looked up)
Growth/differentiation factor …: SAGAGSHCQKTSLRVNFEDIGWDSWIIAPKEYEAYECKGGCFFPLADDVTPTKHAIVQTLVHLKFPTKVGKACCVPTKLSPISVLYKDDMGVPTLKYHYEGMSVAECGCR
B3: VEGFD (protein, UniProt O43915 89-205, looked up)
Vascular endothelial growth …: FAATFYDIETLKVIDEEWQRTQCSPRETCVEVASELGKSTNTFFKPPCVNVFRCGGCCNEESLICMNTSTSYISKQLFEISVPLTSVPELVPVKVANHTGCKCLPTAPRHPYSIIRR
B4: ERBB2IP (protein, UniProt Q96RT1 1-1412, looked up)
Erbin: MTTKRSLFVRLVPCRCLRGEEETVTTLDYSHCSLEQVPKEIFTFEKTLEELYLDANQIEELPKQLFNCQSLHKLSLPDNDLTTLPASIANLINLRELDVSKNGIQEFPENIKNCKVLTIVEASVNPISKLPDGFSQLLNLTQLYLNDAFLEFLPANFGRLTKLQILELRENQLKMLPKTMNRLTQLERLDLGSNEFTEVPEVLEQLSGLKEFWMDANRLTFIPGFIGSLKQLTYLDVSKNNIEMVEEGISTCENLQDLLLSSNSLQQLPETIGSLKNITTLKIDENQLMYLPDSIGGLISVEELDCSFNEVEALPSSIGQLTNLRTFAADHNYLQQLPPEIGSWKNITVLFLHSNKLETLPEEMGDMQKLKVINLSDNRLKNLPFSFTKLQQLTAMWLSDNQSKPLIPLQKETDSETQKMVLTNYMFPQQPRTEDVMFISDNESFNPSLWEEQRKQRAQVAFECDEDKDEREAPPREGNLKRYPTPYPDELKNMVKTVQTIVHRLKDEETNEDSGRDLKPHEDQQDINKDVGVKTSESTTTVKSKVDEREKYMIGNSVQKISEPEAEISPGSLPVTANMKASENLKHIVNHDDVFEESEELSSDEEMKMAEMRPPLIETSINQPKVVALSNNKKDDTKETDSLSDEVTHNSNQNNSNCSSPSRMSDSVSLNTDSSQDTSLCSPVKQTHIDINSKIRQEDENFNSLLQNGDILNSSTEEKFKAHDKKDFNLPEYDLNVEERLVLIEKSVDSTATADDTHKLDHINMNLNKLITNDTFQPEIMERSKTQDIVLGTSFLSINSKEETEHLENGNKYPNLESVNKVNGHSEETSQSPNRTEPHDSDCSVDLGISKSTEDLSPQKSGPVGSVVKSHSITNMEIGGLKIYDILSDNGPQQPSTTVKITSAVDGKNIVRSKSATLLYDQPLQVFTGSSSSSDLISGTKAIFKFDSNHNPEEPNIIRGPTSGPQSAPQIYGPPQYNIQYSSSAAVKDTLWHSKQNPQIDHASFPPQLLPRSESTENQSYAKHSANMNFSNHNNVRANTAYHLHQRLGPARHGEMWAISPNDRLIPAVTRSTIQRQSSVSSTASVNLGDPGSTRRAQIPEGDYLSYREFHSAGRTPPMMPGSQRPLSARTYSIDGPNASRPQSARPSINEIPERTMSVSDFNYSRTSPSKRPNARVGSEHSLLDPPGKSKVPRDWREQVLRHIEAKKLEKKHPQTSSSGDPCQDGIFISGQQNYSSATLSHKDVPPDSLMKMPLSNGQMGQPLRPQANYSQIHHPPQASVARHPSREQLIDYLMLKVAHQPPYTQPHCSPRQGHELAKQEIRVRVEKDPELGFSISGGVGGRGNPFRPDDDGIFVTRVQPEGPASKLLQPGDKIIQANGYSFINIEHGQAVSLLKTFQNTVELIIVREVSS
B5: MILR1 (protein, UniProt Q7Z6M3 20-343, looked up)
Allergin-1: RKAVLDCEAMKTNEFPSPCLDSKTKVVMKGQNVSMFCSHKNKSLQITYSLFRRKTHLGTQDGKGEPAIFNLSITEAHESGPYKCKAQVTSCSKYSRDFSFTIVDPVTSPVLNIMVIQTETDRHITLHCLSVNGSLPINYTFFENHVAISPAISKYDREPAEFNLTKKNPGEEEEYRCEAKNRLPNYATYSHPVTMPSTGGDSCPFCLKLLLPGLLLLLVVIILILAFWVLPKYKTRKAMRNNVPRDRGDTAMEVGIYANILEKQAKEESVPEVGSRPCVSTAQDEAKHSQELQYATPVFQEVAPREQEACDSYKSGYVYSELNF
B6: MIF (protein, UniProt P14174 2-115, looked up)
Macrophage migration …: PMFIVNTNVPRASVPDGFLSELTQQLAQATGKPPQYIAVHVVPDQLMAFGGSSEPCALCSLHSIGKIGGAQNRSYSKLLCGLLAERLRISPDRVYINYYDMNAANVGWNNSTFA
B7: INPPL1 (protein, UniProt O15357 1-1258, looked up)
Phosphatidylinositol …: MASACGAPGPGGALGSQAPSWYHRDLSRAAAEELLARAGRDGSFLVRDSESVAGAFALCVLYQKHVHTYRILPDGEDFLAVQTSQGVPVRRFQTLGELIGLYAQPNQGLVCALLLPVEGEREPDPPDDRDASDGEDEKPPLPPRSGSTSISAPTGPSSPLPAPETPTAPAAESAPNGLSTVSHDYLKGSYGLDLEAVRGGASHLPHLTRTLATSCRRLHSEVDKVLSGLEILSKVFDQQSSPMVTRLLQQQNLPQTGEQELESLVLKLSVLKDFLSGIQKKALKALQDMSSTAPPAPQPSTRKAKTIPVQAFEVKLDVTLGDLTKIGKSQKFTLSVDVEGGRLVLLRRQRDSQEDWTTFTHDRIRQLIKSQRVQNKLGVVFEKEKDRTQRKDFIFVSARKREAFCQLLQLMKNKHSKQDEPDMISVFIGTWNMGSVPPPKNVTSWFTSKGLGKTLDEVTVTIPHDIYVFGTQENSVGDREWLDLLRGGLKELTDLDYRPIAMQSLWNIKVAVLVKPEHENRISHVSTSSVKTGIANTLGNKGAVGVSFMFNGTSFGFVNCHLTSGNEKTARRNQNYLDILRLLSLGDRQLNAFDISLRFTHLFWFGDLNYRLDMDIQEILNYISRKEFEPLLRVDQLNLEREKHKVFLRFSEEEISFPPTYRYERGSRDTYAWHKQKPTGVRTNVPSWCDRILWKSYPETHIICNSYGCTDDIVTSDHSPVFGTFEVGVTSQFISKKGLSKTSDQAYIEFESIEAIVKTASRTKFFIEFYSTCLEEYKKSFENDAQSSDNINFLKVQWSSRQLPTLKPILADIEYLQDQHLLLTVKSMDGYESYGECVVALKSMIGSTAQQFLTFLSHRGEETGNIRGSMKVRVPTERLGTRERLYEWISIDKDEAGAKSKAPSVSRGSQEPRSGSRKPAFTEASCPLSRLFEEPEKPPPTGRPPAPPRAAPREEPLTPRLKPEGAPEPEGVAAPPPKNSFNNPAYYVLEGVPHQLLPPEPPSPARAPVPSATKNKVAITVPAPQLGHHRHPRVGEGSSSDEESGGTLPPPDFPPPPLPDSAIFLPPSLDPLPGPVVRGRGGAEARGPPPPKAHPRPPLPPGPSPASTFLGEVASGDDRSCSVLQMAKTLSEVDYAPAGPARSALLPGPLELQPPRGLPSDYGRPLSFPPPRIRESIQEDLAEEAPCLQGGRASGLGEAGMSAWLRAIGLERYEEGLVHNGWDDLEFLSDITEEDLEEAGVQDPAHKRLLLDTLQLSK
B8: CD177 (protein, UniProt Q8N6Q3 22-408, looked up)
CD177 antigen: LLCQFGTVQHVWKVSDLPRQWTPKNTSCDSGLGCQDTLMLIESGPQVSLVLSKGCTEAKDQEPRVTEHRMGPGLSLISYTFVCRQEDFCNNLVNSLPLWAPQPPADPGSLRCPVCLSMEGCLEGTTEEICPKGTTHCYDGLLRLRGGGIFSNLRVQGCMPQPGCNLLNGTQEIGPVGMTENCNRKDFLTCHRGTTIMTHGNLAQEPTDWTTSNTEMCEVGQVCQETLLLLDVGLTSTLVGTKGCSTVGAQNSQKTTIHSAPPGVLVASYTHFCSSDLCNSASSSSVLLNSLPPQAAPVPGDRQCPTCVQPLGTCSSGSPRMTCPRGATHCYDGYIHLSGGGLSTKMSIQGCVAQPSSFLLNHTRQIGIFSAREKRDVQPPASQHEGG

The experiment has as its system plasma proteins. The experiment can be described thus: Plasma proteins modulated between baseline and day 28 in responders (CR, VGPR, PR; n = 19), Example 6 (Table 13). In kind it is in vivo, human. Conditions: plasma protein (OLINK NPX); responders (CR, VGPR, PR; n = 19); itacitinib 200 mg or 300 mg QD with corticosteroids; day 28 vs baseline. The gist of the method: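 Longitudinal comparison, day 28 versus baseline, with steroid-naive (N=10) and steroid-refractory (N=18) patients combined. Proteins measured by OLINK proximity extension, log2 normalized protein expression. Differences tested by t tests, ANOVA, Pearson correlation, P<0.05 significant.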
With B1, the “Fold Change, Decreased Expression from Baseline to Day 28” value (“Fold Change, Decreased Expression” below) is listed as −1.8117. Take B2: the “Fold Change, Increased Expression from Baseline to Day 28” value amounted to 1.3656. Take B3: the “Fold Change, Increased Expression from Baseline to Day 28” value stood at 1.147. Take B4: the “Fold Change, Decreased Expression” value is listed as −1.7337. With B5, the “Fold Change, Decreased Expression” value is −1.3829. For the molecule B6, the “Fold Change, Decreased Expression” value was −1.7486. Regarding B7, the “Fold Change, Decreased Expression” value was −1.7131. On the same count and under the same terms, the value for B8 was −1.768.
